Measurements published in patent US20180031580.

Molecular target: insulin-like growth factor type 1 (IGF-1)

B1: dipeptidyl-peptidase 4 (DPP-4) (protein)
chain: NKGTDDATADSRKTYTLTDYLKNTYRLKLYSLRWISDHEYLYKQENNILVFNAEYGNSSVFLENSTFDEFGHSINDYSISPDGQFILLEYNYVKQWRHSYTASYDIYDLNKRQLITEERIPNNTQWVTWSPVGHKLAYVWNNDIYVKIEPNLPSYRITWTGKEDIIYNGITDWVYEEEVFSAYSALWWSPNGTFLAYAQFNDTEVPLIEYSFYSDESLQYPKTVRVPYPKAGAVNPTVKFFVVNTDSLSSVTNATSIQITAPASMLIGDHYLCDVTWATQERISLQWLRRIQNYSVMDICDYDESSGRWNCLVARQHIEMSTTGWVGRFRPSEPHFTLDGNSFYKIISNEEGYRHICYFQIDKKDCTFITKGTWEVIGIEALTSDYLYYISNEYKGMPGGRNLYKIQLSDYTKVTCLSCELNPERCQYYSVSFSKEAKYYQLRCSGPGLPLYTLHSSVNDKGLRVLEDNSALDKMLQNVQMPSKKLDFIILNETKFWYQMILPPHFDKSKKYPLLLDVYAGPCSQKADTVFRLNWATYLASTENIIVASFDGRGSGYQGDKIMHAINRRLGTFEVEDQIEAARQFSKMGFVDNKRIAIWGWSYGGYVTSMVLGSGSGVFKCGIAVAPVSRWEYYDSVYTERYMGLPTPEDNLDHYRNSTVMSRAENFKQVEYLLIHGTADDNVHFQQSAQISKALVDVGVDFQAMWYTDEDHGIASSTAHQHIYTHMSHFIKQCFSLP
phosphorylation level of ERK or Akt (western blot): when the eNOS-deficient mice treated with IGF-1 was treated with DPP-4, the phosphorylation level of ERK or Akt which is the protein involved in intracellular signaling was reduced
